We go through one sequence from paper PMC10605006.

Broadly, the Kd is a measure of binding affinity in units of concentration. Read a high Kd as lower affinity.

The target in the data set is NTD (SARS-CoV-2) (UniProt P0DTC9). The experiment in a line: fluorescence anisotropy. The conditions noted are these: Anisotropy: 50 mM Na phosphate pH 6.5, 150 mM NaCl, 1 mM NaN3, 50 nM RNA; EMSA: 20 mM Tris pH 7.5, 150 mM NaCl, 1 mM DTT, room temp, 25 uM RNA; NTD NMR: 20 mM ….

The sequence “GGCACAUGGACGUC / GACGUCCAUGUGCC [ds-14mer]” yielded a Kd of 30 µM.
